From US20180215802A1 (MUSC FOUNDATION FOR RESEARCH DEVELOPMENT, published 2018) come the findings set out here.

Data set [1] concerns the target T1, Recombinant human Smad4 (NM 005359) with C-terminal MYC/DDK tag (human, UniProt Q13485 1-552).
T1 construct: Bought from OriGene; also called DDK-tagged recombinant Smad4; DDK-tagged Smad4; not shown: C-terminal MYC/DDK tag
T1 sequence (looked up): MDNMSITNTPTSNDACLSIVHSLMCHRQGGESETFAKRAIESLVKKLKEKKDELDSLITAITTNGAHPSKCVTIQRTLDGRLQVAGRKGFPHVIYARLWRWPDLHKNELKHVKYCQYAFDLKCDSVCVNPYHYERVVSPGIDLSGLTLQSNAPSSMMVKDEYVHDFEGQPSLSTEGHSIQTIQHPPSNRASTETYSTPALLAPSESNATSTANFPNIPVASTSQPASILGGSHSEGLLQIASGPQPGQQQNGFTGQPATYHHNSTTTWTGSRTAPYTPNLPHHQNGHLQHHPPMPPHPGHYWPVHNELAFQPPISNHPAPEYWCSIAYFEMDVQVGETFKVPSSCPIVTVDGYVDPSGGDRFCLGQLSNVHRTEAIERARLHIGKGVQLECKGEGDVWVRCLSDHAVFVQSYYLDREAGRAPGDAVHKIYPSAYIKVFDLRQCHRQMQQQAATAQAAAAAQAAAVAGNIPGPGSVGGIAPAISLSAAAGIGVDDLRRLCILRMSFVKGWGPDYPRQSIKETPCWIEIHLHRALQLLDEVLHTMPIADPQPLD
The experiment in a line: peptide-protein interaction assay: capture with C12 antibody and protein G sepharose, anti-DDK immunoblot. (In western blotting, separated proteins are transferred to a membrane and probed.)

Data set [2] concerns the target T2, Recombinant human Smad2 (NM 005901) with C-terminal MYC/DDK tag (human, UniProt Q15796 1-467).
T2 construct: Bought from OriGene; also called DDK-tagged recombinant Smad2; DDK-tagged Smad2; not shown: C-terminal MYC/DDK tag
The experiment in a line: peptide-protein interaction assay: M10 and DDK-tagged Smad2 (1 µg each), capture with C12 antibody and protein G sepharose, anti-DDK immunoblot.

Data set [3] deals with MET receptor tyrosine kinase, wild type, full length, P08581.
Sequence of MET receptor tyrosine kinase, wild type, full length, P08581 (P08581 whole entry, looked up): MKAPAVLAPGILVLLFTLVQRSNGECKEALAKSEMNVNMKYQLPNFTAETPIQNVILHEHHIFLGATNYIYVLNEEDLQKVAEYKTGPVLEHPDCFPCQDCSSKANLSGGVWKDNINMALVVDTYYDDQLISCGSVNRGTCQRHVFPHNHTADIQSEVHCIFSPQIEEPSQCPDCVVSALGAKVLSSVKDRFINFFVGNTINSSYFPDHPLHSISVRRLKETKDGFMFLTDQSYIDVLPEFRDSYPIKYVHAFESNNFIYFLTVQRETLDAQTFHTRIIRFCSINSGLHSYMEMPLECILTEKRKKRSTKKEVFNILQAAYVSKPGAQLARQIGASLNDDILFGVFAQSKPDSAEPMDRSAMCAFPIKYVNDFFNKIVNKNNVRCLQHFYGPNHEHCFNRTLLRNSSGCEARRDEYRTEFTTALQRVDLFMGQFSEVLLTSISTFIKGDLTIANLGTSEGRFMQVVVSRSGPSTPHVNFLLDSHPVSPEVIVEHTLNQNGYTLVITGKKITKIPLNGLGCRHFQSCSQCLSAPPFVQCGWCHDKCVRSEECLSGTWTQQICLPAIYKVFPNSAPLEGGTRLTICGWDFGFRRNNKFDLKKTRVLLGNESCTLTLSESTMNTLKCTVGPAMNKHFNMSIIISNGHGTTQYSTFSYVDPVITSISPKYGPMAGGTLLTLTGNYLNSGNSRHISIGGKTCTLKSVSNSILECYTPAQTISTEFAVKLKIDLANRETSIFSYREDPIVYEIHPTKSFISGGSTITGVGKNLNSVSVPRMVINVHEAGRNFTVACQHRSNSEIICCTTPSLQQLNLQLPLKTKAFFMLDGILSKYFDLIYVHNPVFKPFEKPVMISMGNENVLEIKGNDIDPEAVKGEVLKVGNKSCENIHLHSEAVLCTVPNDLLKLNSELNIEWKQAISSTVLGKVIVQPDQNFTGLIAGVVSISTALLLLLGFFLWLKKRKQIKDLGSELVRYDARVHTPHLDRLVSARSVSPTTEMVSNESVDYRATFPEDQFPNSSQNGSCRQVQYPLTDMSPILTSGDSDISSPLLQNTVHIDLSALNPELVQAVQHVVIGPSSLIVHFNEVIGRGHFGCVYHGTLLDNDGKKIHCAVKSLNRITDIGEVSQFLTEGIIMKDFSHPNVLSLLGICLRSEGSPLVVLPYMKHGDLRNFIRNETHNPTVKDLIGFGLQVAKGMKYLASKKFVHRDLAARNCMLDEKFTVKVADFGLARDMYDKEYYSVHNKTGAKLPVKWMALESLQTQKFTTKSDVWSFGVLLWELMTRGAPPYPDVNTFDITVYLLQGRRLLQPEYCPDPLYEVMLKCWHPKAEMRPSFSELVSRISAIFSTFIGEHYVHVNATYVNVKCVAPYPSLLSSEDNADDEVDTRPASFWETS

T2 sequence (Q15796 whole entry): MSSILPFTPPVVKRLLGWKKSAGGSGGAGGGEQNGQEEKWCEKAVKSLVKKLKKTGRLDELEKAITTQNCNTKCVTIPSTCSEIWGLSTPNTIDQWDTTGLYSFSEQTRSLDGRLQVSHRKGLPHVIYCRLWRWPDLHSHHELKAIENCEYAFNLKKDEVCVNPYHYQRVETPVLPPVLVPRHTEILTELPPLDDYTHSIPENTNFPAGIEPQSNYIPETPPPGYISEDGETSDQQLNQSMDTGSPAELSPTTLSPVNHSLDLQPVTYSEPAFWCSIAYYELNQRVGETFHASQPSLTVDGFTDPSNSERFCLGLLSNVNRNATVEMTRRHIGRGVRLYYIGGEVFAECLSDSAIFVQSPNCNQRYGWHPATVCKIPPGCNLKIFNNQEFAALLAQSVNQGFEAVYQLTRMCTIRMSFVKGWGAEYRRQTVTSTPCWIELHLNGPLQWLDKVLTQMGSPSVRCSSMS

B1: M10 peptide (TRPASFWETS), synthetic (peptide)
peptide: TRPASFWETS
notes: Synthetic peptide from GenScript; A 5,6-TAMRA conjugate (at the N-terminus) was used only for localisation; also called 2 kD C-terminal fragment (M10) of the MET receptor; last 10 amino acids of MET
In the case of B1, the binding result is on record as “no binding (tested: 1 µg each)” in data set [1] and “binds” in data set [2].

B2: caspase-3 (activated, endogenous in lung fibroblasts and alveolar epithelial cells) (protein)
chain: SGISLDNSYKMDYPEMGLCIIINNKNFHKSTGMTSRSGTDVDAANLRETFRNLKYEVRNKNDLTREEIVELMRDVSKEDHSKRSSFVCVLLSHGEEGIIFGTNGPVDLKKITNFFRGDRCRSLTGKPKLFIIQACRGTELDCGIETDSGVDDDMACHKIPVEADFLYAYSTAPGYYSWRNSKDGSWFIQSLCAMLKQYADKLEFMHILTRVNRKVATEFESFSFDATFHAKKQIPCIVSMLTKELYFYH
Regarding B2, the “cleavage of the MET C-terminus (loss of C12 signal in Western blot)” value in data set [3] is listed as “Cisplatin-induced caspase-3 cleavage was associated with a loss of detectable MET protein in Western blots with the C12 antibody”.
